Measurements reported in publication PMC8899589, “Anti-PD-L1 peptide-conjugated prodrug nanoparticles for targeted cancer immunotherapy combining PD-L1 blockade with immunogenic cell death” (Theranostics, 2022).
Residues, ends and D or L forms follow the SMILES beside them. *: point of attachment. Doxorubicin(3'-N) = COc1cccc2c1C(=O)c1c(O)c3c(c(O)c1C2=O)C[C@@](O)(C(=O)CO)C[C@@H]3O[C@H]1C[C@H](N*)[C@H](O)[C@H](C)O1

How the values were obtained:
cathepsin B = biological target: T1, cathepsin B (Homo sapiens, UniProt P07858); assay: enzyme cleavage assay, HPLC; assay type: in vitro ADME
T1 construct: purchased R&D systems
Description: The purity and molecular weight were analyzed using HPLC and matrix-assisted laser desorption/ionization time of flight mass spectrometer (MALDI-TOF, AB Sciex TOF/TOF 5800 System, USA) with cyano-4-hydroycinnamic acid (CHCA) matrix, respectively. The average size of PD-NPs in saline (1 mg/mL) was determined via dynamic light scattering (DLS; Zetasizer Nano ZS Malvern Instruments, UK). The morphology of nanoparticles in distilled water (1 mg/mL) was observed by transmission electron microscope (TEM; CM-200, USA). As a control, the cathepsin B-cleaved PD-NPs were also observed using TEM, wherein PD-NPs (1mg/mL) were pre-incubated with cathepsin B (10 μg) at 37 °C for 24 h. Enzyme cleavage assays were performed by incubating PD-NPs (10 μM) with cathepsin B, cathepsin D, cathepsin E, caspase-3 and caspase-9 (10 μg) in MES buffer (0.1 M, pH 5.5). As a control experiment, PD-NPs (10 μM) were also pre-incubated with irreversible cathepsin B inhibitor (Z-FA-FMK; 50 μΜ) in MES buffer and then further incubated with cathepsin B. Enzyme reaction buffer was analyzed by HPLC using an acetonitrile: H2O gradient from 20:80 (0 min) to 80:20 (20 min). In vitro drug release from the PD-NPs was further investigated under both physiological and enzymatic conditions. For these analyses, PD-NPs dispersed in the mouse serum (1 mg/mL) were loaded in membrane (Molecular weight cut off: 2000 Da; Dialysis membrane Spectra/Por® 7 MWCO 2000, 18 mm; Carl Roth, Karlsruhe, Germany) in the presence or absence of cathepsin B enzyme (10 μg). After incubation, peptide-DOX or free DOX released to the outer membrane was analyzed using HPLC. Fluorescence profiles of PD-NPs (10 μM) in saline was analyzed by fluorescence spectrophotometer (F-7000, Hitachi).

T lymphocytes = assay: cytotoxicity against immune cells, CCK-8 assay; assay type: cell-based, mouse; conditions: 24 h treatment, P < 0.001
Description: (§1) The cytotoxicity of PD-NPs was assessed by cell counting kit-8 (CCK-8) assays. First, 1 x 10^4 4T1, HUVEC, H9C2, BMDMs, BMDCs or CD8^+ T cells were seeded in 96-well cell culture plates. After 24 h of stabilization, the PD-NPs or free DOX were treated with each cell for 24 h. Then, the cells were further incubated with culture medium containing CCK-8 solution (10%) for 20 min, and cell viability was measured by a microplate reader with 450 nm of wavelength (VERSAmaxTM; Molecular Devices Corp., USA).

4T1 tumor-bearing mice [1] = assay: biodistribution by NIRF imaging; assay type: in vivo, mouse; conditions: 24 h after injection, 3 mg/kg based on DOX contents
Description: The 6-week female BALB/c mice were purchased from NaraBio (Gyeonggi-do, Republic of Korea). Mice were bred under pathogen-free conditions in the Korea Institute of Science and Technology (KIST). All experiments with animals were performed in compliance with the relevant laws and institutional guidelines of Institutional Animal Care and Use Committee (IACUC; approved number of 2020-123) in Korea Institute of Science and Technology (KIST). The in vivo biodistribution of PD-NPs was assessed in 4T1 tumor-bearing mice, which were prepared by subcutaneous inoculation of 1 x 10^7 4T1 cells. […] Noninvasive near-infrared fluorescence (NIRF) imaging was performed using an IVIS Lumina Series III system (PerkinElmer; Waltham, MA, USA) after 1, 6 and 24 h of injection. Fluorescence intensity in tumor regions was quantified using a Living Image software (PerkinElmer; Waltham, MA, USA). For ex vivo fluorescence imaging, mice were sacrificed after 24 h of injection, followed by extraction of liver, lung, spleen, kidney, heart and tumor tissues. Fluorescence intensity in tissues was analyzed using an IVIS Lumina Series III system. […] Slide-mounted tumor sections were stained with APC fluorescent dye-conjugated CD31 or PD-L1 antibody at 4 °C for 12 h, after which tumor tissues were analyzed using a Leica TCS SP8 confocal laser-scanning microscope.

DCs = assay: cytotoxicity against immune cells, CCK-8 assay; assay type: cell-based, mouse; conditions: 24 h treatment, P < 0.001
Description: (§2) 4T1 ([…]), HUVEC (human umbilical vein endothelial cells) and H9C2 (rat BDIX heart myoblasts) cells were maintained in RPMI-1640, Endothelial cell growth medium (EGM) or Dulbecco's Modified Eagle Medium (DMEM) supplemented with 10% (v/v) fetal bovine serum (FBS), 1% streptomycin and 100 U/mL penicillin, respectively. Bone marrow-derived macrophages (BMDMs) and bone marrow-derived dendritic cells (BMDCs) were prepared by isolating bone marrow cells from BALB/c mice. Then, bone marrow cells were differentiated into BMDMs by incubating with M-CSF (Macrophage colony-stimulating factor, 20 ng/mL) for 7 days, or were differentiated into BMDCs by culturing for 7 days in the presence of GM-CSF (20 ng/mL), IL4 (20 ng/mL) and 0.1% β-mercaptoethanol. After isolation, BMDMs and BMDCs were maintained in RPMI-1640 medium supplemented with 10% (v/v) FBS, 1% streptomycin, and 100 U/mL penicillin.
as §1, with “After 24 h of stabilization, the PD-NPs or free DOX were treated with each cell for 24 h.” left out

4T1 tumor-bearing mice [2] = assay: toxicity study (body weight, blood analyses); assay type: in vivo, mouse; conditions: for blood analyses, hematological parameters (AST, ALT, BUN, CK, WBC, NEUT, LYMP): blood collected on day 16, treated once every three days; for body weights during treatment: treated once every three days
Description: The in vivo toxicity of PD-NPs was assessed by hematological analyses. Briefly, free DOX or PD-NPs (3 mg/kg based on DOX contents) were intravenously injected once every three days, and anti-PD-L1 antibody (10 mg/kg) was simultaneously i.p. injected into mice. Then, blood samples were collected from mice on day 16. For complete blood counts (CBCs), each blood sample was mixed with EDTA and a portion of each blood sample was centrifuged at 1,000 xg for 20 min, and then supernatants were stored at 4 °C. The following factors in blood samples were measured; aspartate transaminase (AST), alanine aminotransferase (ALT), blood urea nitrogen (BUN), creatinine kinase-MB (CK-MB), white blood cell (WBC), neutrophil (NEUT) and lymphocytes (LYMP).

macrophages = assay type: cell-based, mouse
Description: as §2
as §1, with “After 24 h of stabilization, the PD-NPs or free DOX were treated with each cell for 24 h.” left out

4T1 tumor-bearing mice [3] = assay: in vivo tumor inhibition; set-up: species or system mouse; conditions: once every three days; DOX or PD-NPs i.v. 3 mg/kg based on DOX contents, antibody i.p. 10 mg/kg; saline 1655.9 ± 319.94
Description: (§3) 4T1 tumor-bearing mice were randomly divided into four groups: (i) saline; (ii) free DOX; (iii) free DOX with anti-PD-L1 antibody; and (iv) PD-NPs. Then, mice were treated once every three days, with free DOX or PD-NPs (3 mg/kg based on DOX contents), at which time tumor volumes had reached 60 - 80 mm^3. The anti-PD-L1 antibody (10 mg/kg) was i.p. injected simultaneously with free DOX into mice. Antitumor efficacy was assessed by measuring tumor volumes, calculated as largest diameter x smallest diameter^2 x 0.53, every 2 days. For the analysis of antitumor immune responses, tumor tissues were collected on day 7, and single cells were isolated from tumor tissues using a Tumor Dissociation Kit. Following cell counting, the single cells were incubated with FcBlock at 37 °C for 5 min to avoid non-specific antibody binding. Then, multi-parameter staining was performed for 40 min to assess the following populations in tumor tissues; (i) PD-L1^+ cancer cells (CD45^-PD-L1^+); (ii) CRT^+ cancer cells (CD45^-CRT^+); (iii) CD8^+ T cells (CD45^+CD3^+CD8^+); and (iv) regulatory T cells (Tregs; CD45^+CD3^+CD4^+CD25^+). In order to assay the concentration of cytokines in the tumor microenvironment, the IFN-γ and TNF-α in the tumor supernatants were assessed using commercialized ELISA assay kits (Catalog # SMIF00 and SMTA00B, respectively, R&D systems).

[4] = tested on: PD-L1 in IFN-γ-treated 4T1 cells; assay: PD-L1 expression by western blot; assay type: cell-based; conditions: 4T1 cells pre-treated with IFN-γ 20 ng/mL 24 h, then 2 μM for 24 h
Description: PD-L1 expression in 4T1 cells after different treatment was analyzed via western blot. Briefly, 1 × 10^6 4T1 cells were seeded in 6-well cell culture plates with RPMI medium containing 10% FBS and 1% antibiotics. After 24 h of stabilization, the cells were pre-treated with IFN-γ (20 ng/mL) for 24 h and further incubated with equal molar dose (2 μM) of free DOX, PD-NPs, anti-PD-L1 antibody or anti-PD-L1 peptide ([…]) for 24 h. Then, each cell was solubilized with lysis buffer containing 1% protease inhibitors, and the lysates were centrifuged at 10,000 rpm for 15 min to remove cell debris. Proteins in lysates were quantified via BCA protein quantification kit (Thermo Fisher scientific, USA), and then separated by sodium dodecyl sulfate-polyacrylamide (SDS-PAGE) gel electrophoresis and transferred onto polyvinylidene difluoride (PVDF) membranes. Membranes were incubated with TBS-T containing 5% bovine serum albumin (BSA) for 50 min to block non-specific IgG binding and incubated with anti-mouse PD-L1 primary antibody ([…]) for 12 h at 4 °C. Then, membranes were further incubated with HRP-conjugated anti-rabbit IgG antibody for 90 min at room temperature. Finally, immunoreactive bands were observed via enhanced chemiluminescence (ECL) system.

4T1 cells = assay: cytotoxicity, CCK-8 assay; assay type: cell-based; conditions: 4T1, HUVEC and H9C2 cells, 24 h treatment
Description: as §1

4T1 tumor-bearing mice [5] = assay: survival analysis; assay type: in vivo, mouse; conditions: treated once every three days; saline group 18 days
Description: as §3, with “Then, multi-parameter staining was performed for 40 min to assess the following populations in tumor tissues; (i) PD-L1^+ cancer cells (CD45^-PD-L1^+); (ii) CRT^+ cancer cells (CD45^-CRT^+); (iii) CD8^+ T cells (CD45^+CD3^+CD8^+); and (iv) regulatory T cells (Tregs; CD45^+CD3^+CD4^+CD25^+).” left out
The statistical significance between two groups was analyzed using Student's t-test. One-way analysis of variance (ANOVA) was performed for comparisons of more than two groups, and multiple comparisons were analyzed using Tukey-Kramer post-hoc test. Survival data was plotted as Kaplan-Meier curves and analyzed using log-rank test. […]

SMILES	cleaved by cathepsin B (cathepsin B; 10 μM, cathepsin B 10 μg, MES buffer 0.1 M pH 5.5, 6 h post-incubation, HPLC)	cleavage in cathepsin B-suppressed condition (cathepsin B; cathepsin B with irreversible inhibitor Z-FA-FMK 50 μM, MES buffer pH 5.5, HPLC)	cytotoxicity compared to free DOX (T lymphocytes)	accumulation in the liver tissues versus free DOX (4T1 tumor-bearing mice [1]; ex vivo NIRF imaging)	accumulation at tumor tissues compared to free DOX (4T1 tumor-bearing mice [1]; i.v., NIRF)	cytotoxicity compared to free DOX (DCs)	blood analyses, hematological parameters (AST, ALT, BUN, CK, WBC, NEUT, LYMP) (4T1 tumor-bearing mice [2])	body weights during treatment (4T1 tumor-bearing mice [2])	cytotoxicity compared to free DOX (macrophages)	cleavage by cathepsin B (cathepsin B; cathepsin B 10 μg, pH 5.5 MES buffer, 0, 6, 12 and 24 h, HPLC)	tumor volume on day 16 (4T1 tumor-bearing mice [3]) [mm^3]	PD-L1 expression [4]	cytotoxicity in three types of cells (4T1 cells)	median survival (4T1 tumor-bearing mice [5]) [days]
COc1cccc2c1C(=O)c1c(O)c3c(c(O)c1C2=O)C[C@@](O)(C(=O)CO)C[C@@H]3O[C@H]1C[C@H](NC(=O)CNC(=O)[C@H](CCCNC(=N)N)NC(=O)[C@H](CCCNC(=N)N)NC(=O)[C@H](Cc2ccccc2)NC(=O)[C@H](CCCNC(=N)N)NC(=O)[C@@H](NC(=O)[C@H](CCCNC(=N)N)NC(=O)[C@H](C)NC(=O)[C@H](CCCNC(=N)N)NC(=O)[C@@H](NC(=O)[C@H](CS)NC(C)=O)C(C)C)[C@@H](C)O)[C@H](O)[C@H](C)O1 [PD-NPs] (Ac-CVRARTRFRRG-{Doxorubicin(3'-N)})	approximately 99%	not cleaved	significantly reduced	significantly higher accumulation	4.01-4.48 times	significantly reduced	in normal range	gradually increased	significantly reduced	–	–	–	–	–
COc1cccc2c1C(=O)c1c(O)c3c(c(O)c1C2=O)C[C@@](O)(C(=O)CO)C[C@@H]3O[C@H]1C[C@H](NC(=O)CNC(=O)[C@H](CCCNC(=N)N)NC(=O)CNC(=O)[C@H](Cc2ccccc2)NC(=O)[C@H](CCCNC(=N)N)NC(=O)[C@@H](NC(=O)[C@H](CCCNC(=N)N)NC(=O)[C@H](C)NC(=O)[C@H](CCCNC(=N)N)NC(=O)[C@@H](NC(=O)[C@H](CS)NC(C)=O)C(C)C)[C@@H](C)O)[C@H](O)[C@H](C)O1 [CVRARTR-FGRG-DOX] (Ac-CVRARTRFGRG-{Doxorubicin(3'-N)})	–	–	–	–	–	–	–	–	–	not cleaved	–	–	–	–
COc1cccc2c1C(=O)c1c(O)c3c(c(O)c1C2=O)C[C@@](O)(C(=O)CO)C[C@@H]3O[C@H]1C[C@H](N)[C@H](O)[C@H](C)O1.Cl [free DOX, Doxorubicin hydrochloride]	–	–	–	–	–	–	severe cardiac, renal and hepatic toxicity	severe body weight loss	–	–	1028.73 ± 218.15	further increased	indiscriminate cytotoxicity with similar IC50	20
